Measured values reported in the supplement of paper PMC9112550, “Optimization of the antimicrobial peptide Bac7 by deep mutational scanning” (BMC Biology, 2022).

Test system: Escherichia coli TOP10
Experiment: shrunken log2 fold change of peptide-encoding DNA abundance (4.5 h post-induction vs induction); higher = less antimicrobial activity (less host growth inhibition)
Details: time post-induction: 4.5 h; library: site-saturation at positions 5, 18, 19, 20
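Further: peptides expressed intracellularly from a pBAD plasmid library in pooled LB shake-flask culture, induced with 0.3% L-arabinose, DNA abundance read by NGS, three biological replicates, DESeq2 with apeglm shrinkage.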

## RRIRLRPPRLPRPRPRPMDKPRP
  shrunken log2 fold change: -0.296

## RRIRQRPPRLPRPRPRPMATPRP
  shrunken log2 fold change: 0.0329

## RRIRMRPPRLPRPRPRPRNWPRP
  shrunken log2 fold change: 0.788

## RRIRRRPPRLPRPRPRPKCDPRP
  shrunken log2 fold change: 0.0319

## RRIRYRPPRLPRPRPRPCFCPRP
  shrunken log2 fold change: -0.565

## RRIRFRPPRLPRPRPRPYCMPRP
  shrunken log2 fold change: -0.929

## RRIRPRPPRLPRPRPRPHIQPRP
  shrunken log2 fold change: -0.312

## RRIRARPPRLPRPRPRPTKLPRP
  shrunken log2 fold change: -0.00644

## RRIRPRPPRLPRPRPRPYWSPRP
  shrunken log2 fold change: -0.324

## RRIRWRPPRLPRPRPRPRQGPRP
  shrunken log2 fold change: 0.582

## RRIRYRPPRLPRPRPRPYVLPRP
  shrunken log2 fold change: -0.35

## RRIRTRPPRLPRPRPRPMWWPRP
  shrunken log2 fold change: -0.0168

## RRIRVRPPRLPRPRPRPWMDPRP
  shrunken log2 fold change: 0.0171

## RRIRCRPPRLPRPRPRPIKNPRP
  shrunken log2 fold change: -0.311

## RRIRQRPPRLPRPRPRPWCWPRP
  shrunken log2 fold change: 0.304

## RRIRHRPPRLPRPRPRPVCYPRP
  shrunken log2 fold change: -0.663

## RRIRCRPPRLPRPRPRPFNYPRP
  shrunken log2 fold change: -0.836

## RRIRKRPPRLPRPRPRPLHKPRP
  shrunken log2 fold change: 0.342

## RRIRTRPPRLPRPRPRPCFQPRP
  shrunken log2 fold change: -0.232

## RRIRWRPPRLPRPRPRPIKRPRP
  shrunken log2 fold change: 0.21

## RRIRWRPPRLPRPRPRPVDAPRP
  shrunken log2 fold change: 0.434

## RRIRQRPPRLPRPRPRPHHWPRP
  shrunken log2 fold change: -0.0737

## RRIRYRPPRLPRPRPRPLSCPRP
  shrunken log2 fold change: -0.0548

## RRIRFRPPRLPRPRPRPSYHPRP
  shrunken log2 fold change: -0.485

## RRIRCRPPRLPRPRPRPGGFPRP
  shrunken log2 fold change: 0.146

## RRIRSRPPRLPRPRPRPNTLPRP
  shrunken log2 fold change: -0.373

## RRIRTRPPRLPRPRPRPDATPRP
  shrunken log2 fold change: 0.823

## RRIRIRPPRLPRPRPRPQWSPRP
  shrunken log2 fold change: -0.618

## RRIRNRPPRLPRPRPRPLSGPRP
  shrunken log2 fold change: 0.0992

## RRIRRRPPRLPRPRPRPQMEPRP
  shrunken log2 fold change: 0.0751

## RRIRERPPRLPRPRPRPRKSPRP
  shrunken log2 fold change: -0.131

## RRIRMRPPRLPRPRPRPPYHPRP
  shrunken log2 fold change: -0.0913

## RRIRLRPPRLPRPRPRPYGKPRP
  shrunken log2 fold change: -0.242

## RRIRSRPPRLPRPRPRPWWMPRP
  shrunken log2 fold change: -0.0399

## RRIRVRPPRLPRPRPRPVAFPRP
  shrunken log2 fold change: -0.0455

## RRIRVRPPRLPRPRPRPTIWPRP
  shrunken log2 fold change: -0.0331

## RRIRSRPPRLPRPRPRPWDGPRP
  shrunken log2 fold change: -0.0512

## RRIRPRPPRLPRPRPRPQVCPRP
  shrunken log2 fold change: 0.129

## RRIRYRPPRLPRPRPRPKAEPRP
  shrunken log2 fold change: 0.0881

## RRIRPRPPRLPRPRPRPFHWPRP
  shrunken log2 fold change: 0.0105

## RRIRKRPPRLPRPRPRPQNGPRP
  shrunken log2 fold change: -0.178

## RRIRHRPPRLPRPRPRPHRKPRP
  shrunken log2 fold change: -0.351

## RRIRNRPPRLPRPRPRPYDNPRP
  shrunken log2 fold change: -0.897

## RRIRHRPPRLPRPRPRPYRSPRP
  shrunken log2 fold change: 0.0215

## RRIRPRPPRLPRPRPRPTSHPRP
  shrunken log2 fold change: -0.235

## RRIRRRPPRLPRPRPRPDMWPRP
  shrunken log2 fold change: 0.103

## RRIRCRPPRLPRPRPRPNHGPRP
  shrunken log2 fold change: -0.746

## RRIRERPPRLPRPRPRPMTAPRP
  shrunken log2 fold change: -0.0417

## RRIRRRPPRLPRPRPRPIYCPRP
  shrunken log2 fold change: -0.0446

## RRIRMRPPRLPRPRPRPCMHPRP
  shrunken log2 fold change: 0.14

## RRIRSRPPRLPRPRPRPRGTPRP
  shrunken log2 fold change: 0.407

## RRIRMRPPRLPRPRPRPVSYPRP
  shrunken log2 fold change: -0.00671

## RRIRARPPRLPRPRPRPAQKPRP
  shrunken log2 fold change: 0.0505

## RRIRNRPPRLPRPRPRPNRSPRP
  shrunken log2 fold change: -0.165

## RRIRWRPPRLPRPRPRPTHPPRP
  shrunken log2 fold change: 0.709

## RRIRTRPPRLPRPRPRPQIMPRP
  shrunken log2 fold change: -0.337

## RRIRFRPPRLPRPRPRPHCRPRP
  shrunken log2 fold change: -0.0499

## RRIRSRPPRLPRPRPRPWNHPRP
  shrunken log2 fold change: -0.0307

## RRIRCRPPRLPRPRPRPWVIPRP
  shrunken log2 fold change: -0.11

## RRIRSRPPRLPRPRPRPHMLPRP
  shrunken log2 fold change: -0.104

## RRIRARPPRLPRPRPRPFENPRP
  shrunken log2 fold change: 0.166

## RRIRLRPPRLPRPRPRPMMCPRP
  shrunken log2 fold change: 0.00205

## RRIRYRPPRLPRPRPRPGPQPRP
  shrunken log2 fold change: -0.151

## RRIRPRPPRLPRPRPRPLWEPRP
  shrunken log2 fold change: 0.0604

## RRIRKRPPRLPRPRPRPQIHPRP
  shrunken log2 fold change: 0.0287

## RRIRARPPRLPRPRPRPPHPPRP
  shrunken log2 fold change: 0.527

## RRIRHRPPRLPRPRPRPEHAPRP
  shrunken log2 fold change: -0.0423

## RRIRTRPPRLPRPRPRPNNAPRP
  shrunken log2 fold change: -0.303

## RRIRIRPPRLPRPRPRPYETPRP
  shrunken log2 fold change: -0.0282

## RRIRKRPPRLPRPRPRPVLPPRP
  shrunken log2 fold change: 0.338

## RRIRKRPPRLPRPRPRPWILPRP
  shrunken log2 fold change: -0.14

## RRIRTRPPRLPRPRPRPSCFPRP
  shrunken log2 fold change: -0.0671

## RRIRRRPPRLPRPRPRPYVQPRP
  shrunken log2 fold change: 0.0531

## RRIRLRPPRLPRPRPRPPINPRP
  shrunken log2 fold change: -0.00991

## RRIRFRPPRLPRPRPRPWWWPRP
  shrunken log2 fold change: 0.0474

## RRIRSRPPRLPRPRPRPCDVPRP
  shrunken log2 fold change: -0.0124

## RRIRGRPPRLPRPRPRPWGQPRP
  shrunken log2 fold change: 0.204

## RRIRLRPPRLPRPRPRPTGPPRP
  shrunken log2 fold change: 0.298

## RRIRQRPPRLPRPRPRPYNAPRP
  shrunken log2 fold change: -0.0247

## RRIRWRPPRLPRPRPRPGPPPRP
  shrunken log2 fold change: 0.671

## RRIRTRPPRLPRPRPRPEWCPRP
  shrunken log2 fold change: 0.272

## RRIRVRPPRLPRPRPRPYRPPRP
  shrunken log2 fold change: -0.462

## RRIRHRPPRLPRPRPRPQESPRP
  shrunken log2 fold change: 0.00355

## RRIRIRPPRLPRPRPRPHFDPRP
  shrunken log2 fold change: -0.149

## RRIRERPPRLPRPRPRPIMMPRP
  shrunken log2 fold change: -0.689

## RRIRDRPPRLPRPRPRPLKPPRP
  shrunken log2 fold change: -0.00274

## RRIRVRPPRLPRPRPRPNEWPRP
  shrunken log2 fold change: 0.0106

## RRIRWRPPRLPRPRPRPAQHPRP
  shrunken log2 fold change: 0.363

## RRIRMRPPRLPRPRPRPSQFPRP
  shrunken log2 fold change: 0.379

## RRIRTRPPRLPRPRPRPTDAPRP
  shrunken log2 fold change: 0.471

## RRIRMRPPRLPRPRPRPLASPRP
  shrunken log2 fold change: 1.34

## RRIRARPPRLPRPRPRPNLHPRP
  shrunken log2 fold change: 0.0181

## RRIRERPPRLPRPRPRPSFHPRP
  shrunken log2 fold change: -0.549

## RRIRDRPPRLPRPRPRPSDPPRP
  shrunken log2 fold change: -0.0499

## RRIRFRPPRLPRPRPRPVPGPRP
  shrunken log2 fold change: 0.1

## RRIRIRPPRLPRPRPRPSLIPRP
  shrunken log2 fold change: -0.604

## RRIRHRPPRLPRPRPRPATKPRP
  shrunken log2 fold change: -0.0317

## RRIRYRPPRLPRPRPRPVWSPRP
  shrunken log2 fold change: -0.337

## RRIRHRPPRLPRPRPRPVRCPRP
  shrunken log2 fold change: 0.592

## RRIRFRPPRLPRPRPRPNCYPRP
  shrunken log2 fold change: -0.435

## RRIRLRPPRLPRPRPRPNGQPRP
  shrunken log2 fold change: 0.00827

## RRIRMRPPRLPRPRPRPPQKPRP
  shrunken log2 fold change: 0.173

## RRIRHRPPRLPRPRPRPWTHPRP
  shrunken log2 fold change: -0.00208

## RRIRPRPPRLPRPRPRPMVPPRP
  shrunken log2 fold change: 0.18

## RRIRRRPPRLPRPRPRPGQFPRP
  shrunken log2 fold change: 0.0178

## RRIRRRPPRLPRPRPRPYWAPRP
  shrunken log2 fold change: -0.199

## RRIRNRPPRLPRPRPRPFDYPRP
  shrunken log2 fold change: -0.262

## RRIRKRPPRLPRPRPRPENKPRP
  shrunken log2 fold change: 0.528

## RRIRPRPPRLPRPRPRPQGTPRP
  shrunken log2 fold change: 0.306

## RRIRFRPPRLPRPRPRPFGYPRP
  shrunken log2 fold change: -0.113

## RRIRLRPPRLPRPRPRPICVPRP
  shrunken log2 fold change: 0.151

## RRIRHRPPRLPRPRPRPGQGPRP
  shrunken log2 fold change: -0.104

## RRIRCRPPRLPRPRPRPFWDPRP
  shrunken log2 fold change: 0.00555

## RRIRHRPPRLPRPRPRPYMIPRP
  shrunken log2 fold change: -0.025

## RRIRFRPPRLPRPRPRPFREPRP
  shrunken log2 fold change: -0.0914

## RRIRSRPPRLPRPRPRPVKGPRP
  shrunken log2 fold change: -0.0577

## RRIRFRPPRLPRPRPRPACEPRP
  shrunken log2 fold change: -0.0985

## RRIRARPPRLPRPRPRPEELPRP
  shrunken log2 fold change: 0.499

## RRIRDRPPRLPRPRPRPKCRPRP
  shrunken log2 fold change: -0.00674

## RRIRTRPPRLPRPRPRPDHLPRP
  shrunken log2 fold change: 0.0101

## RRIRRRPPRLPRPRPRPNCLPRP
  shrunken log2 fold change: 0.312

## RRIRSRPPRLPRPRPRPMVNPRP
  shrunken log2 fold change: 0.00321

## RRIRMRPPRLPRPRPRPTQQPRP
  shrunken log2 fold change: 0.54

## RRIRCRPPRLPRPRPRPYYEPRP
  shrunken log2 fold change: -1.27

## RRIRSRPPRLPRPRPRPYRMPRP
  shrunken log2 fold change: -0.0162
